Source: CN111378628A (UNIV YANGZHOU, dated 2020)

Tests used:
[1] = target: T1, H37Rv中ESAT6抗原 (Mycobacterium tuberculosis H37Rv, UniProt P9WNK7 2-95); experiment: Western blotting
T1 construct: also called H37Rv中的ESAT6抗原

[2] = target: 重组ESAT6蛋白 (Mycobacterium tuberculosis, UniProt P9WNK7 1-95); experiment: Western blotting
Chain of 重组ESAT6蛋白 (P9WNK7 whole entry): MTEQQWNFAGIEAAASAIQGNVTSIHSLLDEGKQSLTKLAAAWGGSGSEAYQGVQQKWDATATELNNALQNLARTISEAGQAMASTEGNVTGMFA

T1 sequence (P9WNK7 2-95 limits assumed): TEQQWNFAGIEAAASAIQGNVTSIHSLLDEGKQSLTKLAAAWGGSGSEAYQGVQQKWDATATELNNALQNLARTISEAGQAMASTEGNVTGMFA

B1: 单克隆抗体MAb 8G4 (抗ESAT6单克隆抗体, 杂交瘤细胞株8G4, CCTCC NO:C2019287) (antibody, V domains shown)
VH: QIQLVQSGPELKRPGETVKISCKASGYTFTNYGMNWVKQAPGKGLKWMGWINTYNGVPTYTDDFKGRFAFSLETSARTAYLQIKNLKNEDMATYFCAIGGNIPPAYWGQGTLVTVSA
VL: NIMMTQSPSSLAVSAREKVTMICKSSHSVLKSSNQKNYLAWYQQKPGQSPKLLIYWASTRNSGVPDRFTGSGSGTNFTLTITSVQTEDLAVYYCHQYLSSLTFGGGTKLELK
notes: also called 单克隆抗体8G4; ESAT6单克隆抗体8G4
Does B1 bind [1]?
Result: binds

Does B1 bind [2]?
Result: binds
